Patent US20150025225A1 (SHIONOGI, published 2015)
Where a chain is given by its changes, count along the chain named.

How the values were obtained:
Baboon EL-C2 tag = biological target: T1, Baboon EL-C2 tag (baboon, UniProt Q9Y5X9 21-500 (human entry), limits assumed); assay: ELISA-type titration, A450 against antibody concentration; protocol not described in the text
T1 construct: used as heparin extract of transfected HEK293F cells; also called baboon EL heparin extract
T1 chain: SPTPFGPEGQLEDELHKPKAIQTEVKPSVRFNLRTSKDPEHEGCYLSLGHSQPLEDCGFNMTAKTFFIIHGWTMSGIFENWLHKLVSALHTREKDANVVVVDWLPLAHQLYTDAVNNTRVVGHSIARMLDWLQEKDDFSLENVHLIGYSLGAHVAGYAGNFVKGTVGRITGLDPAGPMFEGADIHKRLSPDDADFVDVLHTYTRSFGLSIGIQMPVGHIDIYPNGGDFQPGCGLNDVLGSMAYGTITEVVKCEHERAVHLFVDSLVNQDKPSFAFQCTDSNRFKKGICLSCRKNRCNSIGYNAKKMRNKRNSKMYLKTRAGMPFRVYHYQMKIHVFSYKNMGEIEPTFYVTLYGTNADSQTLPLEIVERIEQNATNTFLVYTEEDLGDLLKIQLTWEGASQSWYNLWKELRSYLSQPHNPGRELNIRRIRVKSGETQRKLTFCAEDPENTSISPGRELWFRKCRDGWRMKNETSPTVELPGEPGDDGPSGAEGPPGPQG

[1] = biological target: T2, cynomolgus monkey EL-C2 tag (cynomolgus monkey, UniProt Q9Y5X9 21-500 (human entry), limits assumed); assay: as above
T2 construct: used as heparin extract of transfected HEK293F cells; also called cynomolgus EL
T2 chain: T1 chain with E12A, E141G

mouse EL-C2 tag = biological target: T3, mouse EL-C2 tag (mouse, UniProt Q9WVG5 21-500); assay: as above
T3 construct: used as heparin extract of transfected HEK293F cells
T3 sequence: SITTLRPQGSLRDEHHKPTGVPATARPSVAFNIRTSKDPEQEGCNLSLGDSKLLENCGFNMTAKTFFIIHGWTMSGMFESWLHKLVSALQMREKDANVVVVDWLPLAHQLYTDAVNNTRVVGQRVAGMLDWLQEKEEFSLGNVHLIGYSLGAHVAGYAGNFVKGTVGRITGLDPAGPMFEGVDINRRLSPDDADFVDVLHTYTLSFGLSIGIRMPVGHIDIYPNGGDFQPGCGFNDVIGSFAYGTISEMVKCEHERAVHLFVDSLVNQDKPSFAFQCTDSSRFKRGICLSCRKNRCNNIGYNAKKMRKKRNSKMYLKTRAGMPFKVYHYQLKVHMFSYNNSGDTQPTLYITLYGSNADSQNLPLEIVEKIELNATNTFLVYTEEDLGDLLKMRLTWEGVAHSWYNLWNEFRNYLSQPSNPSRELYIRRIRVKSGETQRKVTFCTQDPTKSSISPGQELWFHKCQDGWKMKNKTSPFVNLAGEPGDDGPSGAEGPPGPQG

[2] = biological target: T4, human EL[331-459]-mouse EL-C2 tag (human/mouse chimera, UniProt Q9WVG5 21-500 (mouse entry)); assay: as above
T4 construct: used as heparin extract of transfected HEK293F cells; also called human-mouse chimera EL; Human-Mouse chimeric EL
T4 chain: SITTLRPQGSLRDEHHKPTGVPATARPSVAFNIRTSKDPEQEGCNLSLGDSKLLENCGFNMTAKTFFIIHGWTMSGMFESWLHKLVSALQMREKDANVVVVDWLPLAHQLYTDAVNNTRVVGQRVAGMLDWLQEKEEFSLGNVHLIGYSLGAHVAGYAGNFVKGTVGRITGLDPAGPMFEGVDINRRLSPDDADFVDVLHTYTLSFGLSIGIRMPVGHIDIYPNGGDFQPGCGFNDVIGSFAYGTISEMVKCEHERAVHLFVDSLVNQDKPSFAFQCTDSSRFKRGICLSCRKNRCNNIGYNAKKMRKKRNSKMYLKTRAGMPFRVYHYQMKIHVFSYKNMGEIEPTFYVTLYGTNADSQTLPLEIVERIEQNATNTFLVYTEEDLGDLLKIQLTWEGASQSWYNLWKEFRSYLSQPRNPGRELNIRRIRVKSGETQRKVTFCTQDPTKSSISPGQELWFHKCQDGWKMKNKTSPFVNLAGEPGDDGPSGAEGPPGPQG

[3] = biological target: T5, human EL-411-500 fragment (human); assay: sandwich ELISA: 12B10 (5 ug/mL) captured on anti-mouse IgG-Fc plate, serial dilutions of fragment lysate, detection with biotin anti-C2-tag Fab and HRP-streptavidin, A450
T5 construct: Used as HEK293 lysate
T5 chain: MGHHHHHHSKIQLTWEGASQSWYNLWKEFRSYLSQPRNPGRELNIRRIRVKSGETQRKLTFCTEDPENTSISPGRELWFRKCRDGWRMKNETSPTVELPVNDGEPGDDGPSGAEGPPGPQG
Experimental: Assay buffer containing 15 μl of 12B10 antibody (5 μg/mL) was added to immobilized plate of anti-mouse IgG-Fc antibody and incubated for 2 hr. […] After washing the wells three times with 90 μl of washing buffer, 15 μL of assay buffer containing biotin-labeled anti-C2-tag (Fab) antibody and HRP-labeled Streptavidin (Thermo scientific) were added to the wells and incubated at room temperature for 1 hr. After washing the wells three times with 90 μl of washing buffer, 15 μL of TMB+-Substrate-Chromogen (DAKO) was added and incubated at room temperature for 30 min. The reaction was stopped with adding 15 μL of 0.05M H₂SO₄ and then measured absorbance 450 nm.

EC50 (read off the curve) (Baboon EL-C2 tag): ~0.02 µg/mL | EC50 (read off the curve) [1]: ~0.007 µg/mL | binding result (mouse EL-C2 tag): no binding | EC50 (read off the curve) [2]: ~0.04 µg/mL | binding result [3]: binds
B1: 12B10 antibody (antibody, IgG2a, V domains shown)
VH: QVTLKESGPGILKPSQTLSLTCSFSGFSLSTSGMGVGWIRQPSGKGLEWLAHIWWNDEKYYNPSLKSQLTISKDTSRNQVFLKITSVDTADTATYYCARSYDGSPFPSWGQGTLVTVSA
VL: DIQMTQSPSSLSASLGGKVTITCKASQDINKYIAWFQHKPGKGPRLLMAYPFTLQPGIPSRFSGNGSGRDYSFSISNLEPEDIATYYCLQYDNLLWTFGGGTRLEIK
